In US20220204638A1, “Combination Therapies Comprising Daratumumab, Bortezomib, Thalidomide and Dexamethasone and Their Uses” (Janssen Biotech, Inc., priority 2019, published 2022):

How the values were obtained:
[1] = Clinical pharmacokinetics of daratumumab; assay type: in vivo, human
Excerpt: Daratumumab volume of distribution was 4.7±1.3 L as monotherapy and 4.4±1.5 L as combination therapy following administration of the approved dosage.
Daratumumab clearance decreased with increasing dose and with multiple dosing.
The effect of severe (total bilirubin>3 times ULN and any AST) hepatic impairment on daratumumab pharmacokinetics is unknown.

[2] = molecular target: T1, CD38 on red blood cells (Homo sapiens, UniProt P28907); test: Interference with Indirect Antiglobulin Test (Indirect Coombs test)
T1 construct: endogenous in cells; host or cells: red blood cells (reagent RBCs used in serological testing)
Excerpt: Daratumumab binds to CD38 on red blood cells (RBCs) and results in a positive Indirect Antiglobulin Test (Indirect Coombs test). Daratumumab-mediated positive indirect antiglobulin test may persist for up to 6 months after the last daratumumab infusion. Daratumumab bound to RBCs masks detection of antibodies to minor antigens in the patient's serum [see References (15)]. The determination of a patient's ABO and Rh blood type are not impacted [see Drug Interactions (7.1)].
Daratumumab binds to CD38 on RBCs and interferes with compatibility testing, including antibody screening and cross matching. Daratumumab interference mitigation methods include treating reagent RBCs with dithiothreitol (DTT) to disrupt daratumumab binding [see References (15)] or genotyping. Since the Kell blood group system is also sensitive to DTT treatment, K-negative units should be supplied after ruling out or identifying alloantibodies using DTT-treated RBCs.

[3] = test system: multiple myeloma, prior PI and immunomodulatory agent; test: EQUULEUS (NCT01998971) open-label trial, DARZALEX with pomalidomide and dexamethasone
Procedure: In [sequence], patients receiving daratumumab combination treatment (n=97) were administered the first 16 mg/kg daratumumab dose at Week 1 split over two days i.e. 8 mg/kg on Day 1 and Day 2 respectively.
Pomalidomide (4 mg once daily orally on Days 1-21 of repeated 28-day [4-week] cycles) was given with low dose oral or intravenous dexamethasone 40 mg/week (reduced dose of 20 mg/week for patients>75 years or BMI<18.5).
The median patient age was 64 years (range: 35 to 86 years) with 8% of patients≥75 years of age. Patients in the study had received a median of 4 prior lines of therapy. Seventy-four percent (74%) of patients had received prior ASCT. Ninety-eight percent (98%) of patients received prior bortezomib treatment, and 33% of patients received prior carfilzomib. All patients received prior lenalidomide treatment, with 98% of patients previously treated with the combination of bortezomib and lenalidomide. Eighty nine percent (89%) of patients were refractory to lenalidomide and 71% refractory to bortezomib; 64% of patients were refractory to bortezomib and lenalidomide.

[4] = test system: relapsed or refractory multiple myeloma; test: SIRIUS (NCT01985126) open-label DARZALEX monotherapy trial; assay type: in vivo, human
Excerpt: (§1) Treatment continued until unacceptable toxicity or disease progression.
The median patient age was 63.5 years (range: 31 to 84 years), 49% were male and 79% were Caucasian. Patients had received a median of 5 prior lines of therapy. […] Prior therapies included bortezomib (99%), lenalidomide (99%), pomalidomide (63%) and carfilzomib (50%).

[5] = Storage of diluted DARZALEX solution; assay type: physicochemical
Excerpt: Prepare the solution for infusion using aseptic technique as follows: • Calculate the dose (mg), total volume (mL) of DARZALEX solution required and the number of DARZALEX vials needed based on patient actual body weight. • Check that the DARZALEX solution is colorless to pale yellow. […] Infusion bags/containers must be made of either polyvinylchloride (PVC), polypropylene (PP), polyethylene (PE) or polyolefin blend (PP+PE). Dilute under appropriate aseptic conditions. Discard any unused portion left in the vial. • Gently invert the bag/container to mix the solution. […] The diluted solution may develop very small, translucent to white proteinaceous particles, as daratumumab is a protein. […] (59° F.-77° F.) and in room light. Diluted solution may be kept at room temperature for a maximum of 15 hours (including infusion time). • If not used immediately, the diluted solution can be stored prior to administration for up to 24 hours at refrigerated conditions 2° C.-8° C. (36° F.-46° F.) and protected from light.

[6] = Immunogenicity, anti-daratumumab antibodies in clinical trials; assay type: in vivo, human
Excerpt: As with all therapeutic proteins, there is the potential for immunogenicity. The detection of antibody formation is highly dependent on the sensitivity and specificity of the assay. Additionally, the observed incidence of antibody (including neutralizing antibody) positivity in an assay may be influenced by several factors including assay methodology, sample handling, timing of sample collection, concomitant medications, and underlying disease. For these reasons, comparison of the incidence of antibodies to daratumumab in the studies described below with the incidence of antibodies in other studies or to other products may be misleading. […] One patient administered DARZALEX as combination therapy, developed transient neutralizing antibodies against daratumumab. However, this assay has limitations in detecting anti-daratumumab antibodies in the presence of high concentrations of daratumumab; therefore, the incidence of antibody development might not have been reliably determined.

[7] = test system: relapsed and refractory multiple myeloma; test: DARZALEX monotherapy safety, three open-label clinical trials (N=156); assay type: in vivo, human
Excerpt: Serious adverse reactions were reported in 51 (33%) patients.
Table 23 describes Grade 3-4 laboratory abnormalities reported at a rate of ≥10%.

[8] = test system: multiple myeloma; test: Clinical trials pooled, monotherapy and combination treatments (N=2,066); assay type: in vivo, human
[9] = test system: NK cells; test: Pharmacodynamics, NK cell counts; assay type: in vivo, human; details: peripheral whole blood and bone marrow
Excerpt: NK cells express CD38 and are susceptible to daratumumab mediated cell lysis.

[10] = Clinical pharmacokinetic drug-drug interaction assessments; details: human, in vivo
[11] = test system: relapsed or refractory multiple myeloma; test: GEN501 (NCT00574288) open-label dose escalation monotherapy trial; assay type: in vivo, human
Excerpt: as §1
Seventy-four percent of patients had received prior ASCT. Prior therapies included bortezomib (100%), lenalidomide (95%), pomalidomide (36%) and carfilzomib (19%).

DARZALEX: IgG1κ human monoclonal antibody against CD38, HC SEQ ID NO: 9 and LC SEQ ID NO: 10
mean serum Cmax at end of weekly dosing compared to first dose ([1]; approved recommended dosage, monotherapy or combination): 2.7 to 3 fold
Terminal half-life ([1]; combination therapy vs monotherapy): similar
trough serum concentration (Cmin) at end of weekly dosing, mean±SD ([1]; monotherapy): 573 ± 332 µg/mL
linear clearance, mean±SD ([1]; monotherapy, estimated): 171.4 ± 95.3 mL/day
terminal half-life associated with linear clearance, mean±SD ([1]; monotherapy, estimated): 18 ± 9 days
pharmacokinetics in specific populations ([1]; sex, age, mild and moderate hepatic impairment, renal impairment): No clinically significant differences
persistence of positive indirect antiglobulin test after the last infusion [2]: up to 6 months
incidence of any grade infusion-related reactions ([3]; combination treatment (n=97), first 16 mg/kg dose split over two days): 42%
infusion reactions on Day 2 of Week 1 ([3]; split first dose): 4%
infusion reactions with subsequent infusions ([3]; split first dose): 8%
Overall response rate (ORR) ([4]; Independent Review Committee, IMWG criteria): 31 (29.2%)
Complete response (CR) ([4]; in vivo): 0
Partial response (PR) ([4]; in vivo): 18 (17.0%)
Stringent complete response (sCR) ([4]; in vivo): 3 (2.8%)
Very good partial response (VGPR) ([4]; in vivo): 10 (9.4%)
median duration of response ([4]; in vivo): 7.4 months
median time to response ([4]; in vivo): 1 month
time diluted solution can be stored refrigerated ([5]; 2-8 °C, protected from light): up to 24 hours
time diluted solution may be kept at room temperature ([5]; 15-25 °C, including infusion time): ≤ 15 h
transient neutralizing antibodies against daratumumab ([6]; combination therapy): One patient
patients positive for anti-daratumumab antibodies ([6]; of the 1,050 evaluable combination therapy patients): 2
Serious adverse reactions ([7]; 16 mg/kg monotherapy): 33%
Arthralgia, Any Grade ([7]; human, in vivo): 17%
Arthralgia, Grade 3 ([7]; human, in vivo): 0%
Arthralgia, Grade 4 ([7]; human, in vivo): 0%
Back pain, Any Grade ([7]; human, in vivo): 23%
Back pain, Grade 3 ([7]; human, in vivo): 2%
Back pain, Grade 4 ([7]; human, in vivo): 0%
Chills, Any Grade ([7]; human, in vivo): 10%
Chills, Grade 3 ([7]; human, in vivo): 0%
Chills, Grade 4 ([7]; human, in vivo): 0%
Constipation, Any Grade ([7]; human, in vivo): 15%
Constipation, Grade 3 ([7]; human, in vivo): 0%
Constipation, Grade 4 ([7]; human, in vivo): 0%
Cough, Any Grade ([7]; human, in vivo): 21%
Cough, Grade 3 ([7]; human, in vivo): 0%
Cough, Grade 4 ([7]; human, in vivo): 0%
Decreased appetite, Any Grade ([7]; human, in vivo): 15%
Decreased appetite, Grade 3 ([7]; human, in vivo): 1%
Decreased appetite, Grade 4 ([7]; human, in vivo): 0%
Diarrhea, Any Grade ([7]; human, in vivo): 16%
Diarrhea, Grade 3 ([7]; human, in vivo): 1%
Diarrhea, Grade 4 ([7]; human, in vivo): 0%
Dyspnea, Any Grade ([7]; human, in vivo): 15%
Dyspnea, Grade 3 ([7]; human, in vivo): 1%
Dyspnea, Grade 4 ([7]; human, in vivo): 0%
Fatigue, Any Grade ([7]; human, in vivo): 39%
Fatigue, Grade 3 ([7]; human, in vivo): 2%
Fatigue, Grade 4 ([7]; human, in vivo): 0%
Headache, Any Grade ([7]; human, in vivo): 12%
Headache, Grade 3 ([7]; human, in vivo): 1%
Headache, Grade 4 ([7]; human, in vivo): 0%
Hypertension, Any Grade ([7]; human, in vivo): 10%
Hypertension, Grade 3 ([7]; human, in vivo): 5%
Hypertension, Grade 4 ([7]; human, in vivo): 0%
Infusion reaction, Any Grade ([7]; human, in vivo): 48%
Infusion reaction, Grade 3 ([7]; human, in vivo): 3%
Infusion reaction, Grade 4 ([7]; human, in vivo): 0%
Musculoskeletal chest pain, Any Grade ([7]; human, in vivo): 12%
Musculoskeletal chest pain, Grade 3 ([7]; human, in vivo): 1%
Musculoskeletal chest pain, Grade 4 ([7]; human, in vivo): 0%
Nasal congestion, Any Grade ([7]; human, in vivo): 17%
Nasal congestion, Grade 3 ([7]; human, in vivo): 0%
Nasal congestion, Grade 4 ([7]; human, in vivo): 0%
Nasopharyngitis, Any Grade ([7]; human, in vivo): 15%
Nasopharyngitis, Grade 3 ([7]; human, in vivo): 0%
Nasopharyngitis, Grade 4 ([7]; human, in vivo): 0%
Nausea, Any Grade ([7]; human, in vivo): 27%
Nausea, Grade 3 ([7]; human, in vivo): 0%
Nausea, Grade 4 ([7]; human, in vivo): 0%
Pain in extremity, Any Grade ([7]; human, in vivo): 15%
Pain in extremity, Grade 3 ([7]; human, in vivo): 1%
Pain in extremity, Grade 4 ([7]; human, in vivo): 0%
Pneumonia, Any Grade ([7]; human, in vivo): 11%
Pneumonia, Grade 3 ([7]; human, in vivo): 6%
Pneumonia, Grade 4 ([7]; human, in vivo): 0%
Pyrexia, Any Grade ([7]; human, in vivo): 21%
Pyrexia, Grade 3 ([7]; human, in vivo): 1%
Pyrexia, Grade 4 ([7]; human, in vivo): 0%
Serious adverse reaction, general physical health deterioration ([7]; human, in vivo): 3%
Serious adverse reaction, pneumonia ([7]; human, in vivo): 6%
Serious adverse reaction, pyrexia ([7]; human, in vivo): 3%
Upper respiratory tract infection, Any Grade ([7]; human, in vivo): 20%
Upper respiratory tract infection, Grade 3 ([7]; human, in vivo): 1%
Upper respiratory tract infection, Grade 4 ([7]; human, in vivo): 0%
Vomiting, Any Grade ([7]; human, in vivo): 14%
Vomiting, Grade 3 ([7]; human, in vivo): 0%
Vomiting, Grade 4 ([7]; human, in vivo): 0%
discontinuations due to adverse reactions ([7]; human, in vivo): 4%
treatment delay due to adverse reactions ([7]; human, in vivo): 15%
Anemia, Any Grade ([7]; lab abnormality): 45%
Anemia, Grade 3 ([7]; lab abnormality): 19%
Anemia, Grade 4 ([7]; lab abnormality): 0%
Lymphopenia, Any Grade ([7]; lab abnormality): 72%
Lymphopenia, Grade 3 ([7]; lab abnormality): 30%
Lymphopenia, Grade 4 ([7]; lab abnormality): 10%
Neutropenia, Any Grade ([7]; lab abnormality): 60%
Neutropenia, Grade 3 ([7]; lab abnormality): 17%
Neutropenia, Grade 4 ([7]; lab abnormality): 3%
Thrombocytopenia, Any Grade ([7]; lab abnormality): 48%
Thrombocytopenia, Grade 3 ([7]; lab abnormality): 10%
Thrombocytopenia, Grade 4 ([7]; lab abnormality): 8%
Grade 3/4 infusion reaction at Week 2 or subsequent infusions ([8]; human, in vivo): Less than 1%
incidence of any grade infusion reactions, Week 2 infusion ([8]; human, in vivo): 2%
incidence of any grade infusion reactions, first (16 mg/kg, Week 1) infusion ([8]; human, in vivo): 37%
incidence of any grade infusion reactions, subsequent infusions (cumulative) ([8]; human, in vivo): 6%
time after completing infusion within which nearly all reactions occurred ([8]; human, in vivo): ≤ 4 h
patients who experienced an infusion reaction ([8]; in clinical trials): approximately half
time after infusion at which infusion reactions occurred ([8]; prior to the introduction of post-infusion medication): up to 48 hours
absolute counts and percentages of total and activated NK cells [9]: Decreases
drug-drug interactions with lenalidomide, pomalidomide, bortezomib and dexamethasone [10]: no clinically relevant drug-drug interactions
Overall response rate ([11]; 16 mg/kg, 42 patients): 36%
number of CR ([11]; 16 mg/kg, 42 patients): 1
number of VGPR ([11]; 16 mg/kg, 42 patients): 3
median duration of response ([11]; in vivo): not estimable
median time to response ([11]; in vivo): 1 month
